Measurements as given in paper PMC9333441.

How the values were obtained:
human ACE2-Fc (human) = human ACE2-Fc (human) (UniProt Q9BYF1); assay: BLI
[1] = target: ACE2 on Vero-E6 cells (African green monkey (endogenous in Vero-E6)); assay: flow cytometry on cells

## soluble epitope-tagged RBD of Wuhan-Hu-1 SARS-CoV-2 (domain or fragment)
Human ACE2-Fc (human)
  Kd: 9.3 nM
[1]
  EC50: 17.4 nM
